{"source": "the nanobody polyreactivity screen of Harvey et al. (2022)", "data": [{"test": "yeast display, Sf9 membrane polyspecificity reagent, FACS + sequencing; frameworks hold sequencing errors", "in_short": "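Sorting gates, low and high (top ~1%), were placed on anti-HA fluorescence to track expression and on streptavidin fluorescence to track reagent binding. A clone's polyreactivity label is taken from the gate it came out of. The reagent was 10% biotinylated, detergent-solubilized Sf9 membrane, applied for 1 hour at 4 °C to galactose-induced yeast display cells.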", "values": [{"sequence": "QVQLVESGGGLVQAGGSLRLSCPASGRIFKWYAMGWYRPAPGKERELVAAISWSGGRTYYADSVKGRFTISRDNAKNTVYLQMHSVKPEDTAVYYCAAAIRYRNYVYLYDYWGQGTQVTVSS", "polyreactivity (PSR sort gate)": "high polyreactivity"}, {"sequence": "QVQLVESGGGLVQAGGSLRLSCAASGRIFITKAMGWYRQAPGKERELVAAIRRRGGNTYYADSVKGRFTISRDNAKNTVYLQMNSLKPEDTAVYYCAVYPRPYKYNYWGQGTQVSVSS", "polyreactivity (PSR sort gate)": "high polyreactivity"}, {"sequence": "QVQLVESGGGLVQAGGSLRLSCAASGRTFWYYGMGWYRQAPGKERELVAAISRSGGRTYYADSVKGRFTISRDNAKNTVYLQMNSLKPEDTAVYYCVASYRRTFDYWGHGTQVTVSS", "polyreactivity (PSR sort gate)": "high polyreactivity"}, {"sequence": "QVQLVESGGGIVQAGGSLRLSCAASGSTFYRYAMGWYRQAPGKERELVATITNSGGSTYYADSVKGRFTISRDNAKNTVYLQMNSLKPEDTAVYYCARVRSRNTGYYYWGQGTQVTVSS", "polyreactivity (PSR sort gate)": "high polyreactivity"}, {"sequence": "QVQLVESGGGLVQAGGSLRLSCAASGFTFDYYAMGWYRQAPGKERELVASITFIGGNTNYADSVKGRFTISRDNAKNTVYLQMNSLKPEDTAVYYCAADFPWDYRYWFEYWGQGTQVTVSS", "polyreactivity (PSR sort gate)": "low polyreactivity"}, {"sequence": "QVQLVESGGGLVQAGGSLRLSCAASGFIFSPYDMGWYRQAPGKERELVAAISWRTGSTYYADSVKGRFTISRDNAKNTVYLQMNSLKPEDTAVYYCAARFIWSSYGRYDYWGQGTQVTVSS", "polyreactivity (PSR sort gate)": "high polyreactivity"}, {"sequence": "QVQLVESGGGLVQAGGSLRLSCAASGSTFTHYAMGWYIQAPWKERELVAGISWGGSSTYYADSVKGRFTISRDNAKNTVYLQMNSLKPEDTAVYYCAAGRRGSYPGGYGYWGQGTQVTVSS", "polyreactivity (PSR sort gate)": "low polyreactivity"}, {"sequence": "QVQQQESGGGLVQAGGSLRLSCAASGYISVVIGMGWYRQSPGKERELVASIAYGAITYYTDSVKGRFTISRDYAKNTEYLQMNSLKAEDTAVYYCAADQPPLAYHWYWGQGTQATVSS", "polyreactivity (PSR sort gate)": "high polyreactivity"}, {"sequence": "QVQLVESGGGLVQAGGSLLLSCAASGSTFNDNAMGWYRQAPGKERELVAAIDSGGITNYADSVKGRFTISRDNAKNTVYLQMNSLKPEDTAVYYCAVEGEYLTPSGRYRLDYWGQGTEVTVSS", "polyreactivity (PSR sort gate)": "low polyreactivity"}, {"sequence": "QVQLVESGGGLDQAGGSLRLSCAASVSTFLVNTMGWYRQAPGKEREFVAAYADSVKGRFTISRDNAKNTVYLQMNSLKPEYTAVYYCNAGGSEIYRSPFDYWGQGTQVTVSS", "polyreactivity (PSR sort gate)": "low polyreactivity"}, {"sequence": "QVQLVESGGGLVQAGGRLRLSCAASGRTLYRYVMVWYRQAPWKERELVAAISATAGSTYYADSVKGRFTISRDNAKNTVYLQMNSLTPEDTAVYYCAAEGYTLWYWLEFEYWGQGTQVTVSS", "polyreactivity (PSR sort gate)": "high polyreactivity"}, {"sequence": "RVQLVESGGGLVQAGGSLRLSCAASGFTIQRYAMGWYRQAPGKVRELVAGITGGGNTKYADSVKGRFTISRDNAKNTVYLQMNSLKPEDTAVYYCAARGGVPRGKFGYDYWGQGTQVTVSS", "polyreactivity (PSR sort gate)": "high polyreactivity"}, {"sequence": "QVQLVESGGGLVQAGGSLRLICAASGRTFTRYAMGWYRQAPGKERELVAAITSGDSTYYADSVKGRFTISRDNAKNTVYLQMNSLKPEDTAVYYCAARTSYGYWYRRRYYYWGQGTQVTVSS", "polyreactivity (PSR sort gate)": "high polyreactivity"}, {"sequence": "QVQLVESGGGLVQAGGSLRLSCAASGFTFRLNAMGWYRQAPGKEREMVAAISSSGGRTYYADSVKGRFTISRDNAKNTVYLQLNSLKPEDTAVYYCAADYTTRYLDGVVARGYYWGQGTQVTVSS", "polyreactivity (PSR sort gate)": "high polyreactivity"}, {"sequence": "QVQLVESGGGLVQAGGSLRLSCAASGFIFIAYTMGWYRQAPGKERELVAAISSRGGRTYYADSVKGRFTISRDNAKNTVYLQMNSLKPEDTAVYYCAASYTYYSFGFGTDVRYGYWGQGTQVTVSS", "polyreactivity (PSR sort gate)": "high polyreactivity"}, {"sequence": "QVQLVESGGGLVQAGGSLRLICAASGRIFRYYAMGWYRQAPGKERELVASISWRGGSTYYADSVKGRFTISRDNAKNTVYLQMNSLKPDDTAVYYCNAAPGAFYRWWGFGSDYWGQGTQVTVSS", "polyreactivity (PSR sort gate)": "high polyreactivity"}, {"sequence": "QVQLVESGGGLVQAGGSLRLSCAASGSNFTAYAMGWYRQAPGKERELVAAITKSSVTYYADSVKGRFTISRDNAKNTVYLQMNSVKPEDTAVYYCAGYSPRPSDLYSPIAYYYWGQGTLVTVSS", "polyreactivity (PSR sort gate)": "low polyreactivity"}, {"sequence": "QVPLVESGGGLVQAGGSLRIRCAASGSIFAGNALGWYRQAPGKEWELVAAIARRGGSTYYADSVKGRFTISRDNAKNTVYLQMNSLKPEDTAVYYCNDLLRYAYHAAFGYWGQATQVTVSS", "polyreactivity (PSR sort gate)": "high polyreactivity"}, {"sequence": "QVQLVESGGGLVQAGGSLRLSCAASGITFRYYPMGWYRPAPGKQRELVAAISRTSGRTYYADSVKGRFTISRDNAKNTVYLQMNSLNPEDPAVYYCNKAWTPSLLYQSYYWGQGPQVTVSS", "polyreactivity (PSR sort gate)": "high polyreactivity"}, {"sequence": "QVQLVESGGGLVQAGGSLRLSCAASGSIFDYYAMGWYRQAPGKERELVASISWIGDRTYYADSVKGRFTISRDNAKNTVYLQMNSLKPEDTAVYYCATDYYEDWRGYEVYWYRPYDYWGQGTQVSVSS", "polyreactivity (PSR sort gate)": "high polyreactivity"}, {"sequence": "QVQLVESGGGLVQAGGRLRLSCAASGSNFGLNALGWYRQAPGKERELVAAINSDADTYYADSVKGRFTISRDNAKNTVYLQMNSQKPADTAVYYCAADYYWDPFDSNFGHVPQEYESWGQGTQVTVSS", "polyreactivity (PSR sort gate)": "low polyreactivity"}, {"sequence": "QVQLVESGGGLVQAGGSLRISCAASGSTFQGNAMGWSRHAPGKERELVAAISRSGGSTYADSVKGRFTISRDNAKNTVYLQMNSLKPEDTAVYYCSADAPFDRPYNYWGQGTQVTVSS", "polyreactivity (PSR sort gate)": "low polyreactivity"}, {"sequence": "QVQLVESARGLVQAGGSLRLRCAASGSTLSVYVMGWYRQAPGKERELVAAITRGGSTNYADSVKGRFTISRDNAKNTVYLQINSLNPEDTAVYYCAARSFVYYHHGEGSRSGRYYYWGQGTQVTVSS", "polyreactivity (PSR sort gate)": "high polyreactivity"}, {"sequence": "QVQLVESGGGLVQAGGSLRLSCAASGRIFGKYAMGWYRQAPWKERELVATISLSGVRTYYADSVKGRFTISRDNAKNTVYLQMNSLKPEDTAVYYCAAGYSSNGDYWGQGTQVTVSS", "polyreactivity (PSR sort gate)": "low polyreactivity"}, {"sequence": "QVQLVESGGGLVQAGGSLRLSCAASGRIFYDYTMGWYRQEPGKERELVAAINSGGGSTYYADSVKGRFTISRDNAKNTVYLQMNSLKPEVSAVYYCNADGQWNIWEYDYWGQGTQVTVSS", "polyreactivity (PSR sort gate)": "high polyreactivity"}, {"sequence": "QVQLVESWGGLVQAGGSLRLSCAASGITFTVYAMGWYRQPPGKERELVAAITRGTSTYADSVKGRFTISRDNAKNTVYLQMNSLKPEDTAVYYCAARSSPWYTRYRSSELFDYWGQGTQVTVSS", "polyreactivity (PSR sort gate)": "high polyreactivity"}, {"sequence": "QVQLVESGGGLFQAGGRLRLICAASGRIFTTNAMGWYRQAPGKERELVPAISRSGGSTNYADSVKGRFTISRDNAKNTVYLQMNSLIPEDTAVYYCAAVPTCNSFRSSFYYWGQGTQVTVSS", "polyreactivity (PSR sort gate)": "high polyreactivity"}, {"sequence": "QVQLVESCGGIVQAGGSLRLSCAASGSTFRVNAMGWYRHSPGKERELVAAIRKSGGSTYADSVKGRFTISRDNAKNTFNLQMNSLKPEDTGVYYCNADATAWLGLADNYWVQGTQVTVSS", "polyreactivity (PSR sort gate)": "low polyreactivity"}, {"sequence": "QVQLVESGGGLVQAGGSLRLSCAASGYTFHGYAMGWYRQAPGKERELVAVITQRGGSTSYADSVKGRFTISRDNAKNTVYLQMNSLKPEDTAVYYCNADGPSTPWVDYGYWGQGTQVTVSS", "polyreactivity (PSR sort gate)": "low polyreactivity"}, {"sequence": "QVQLVESGGGLVQAGGILRLSCAASGFTFKANAMGWYRQAPGKERELVAAISRRGSSTYYADSVKGRFTISRDNAKNTVYLQMNSLKPEDTAVYYCNTKPRAGRTKLGYWGQGTQVTVSS", "polyreactivity (PSR sort gate)": "high polyreactivity"}, {"sequence": "QVQLVESGGGLVQAGGSLRLSCAASGRTFTGYAMGWYRQAPGKERELVAAISQGSGSTYYADSVKGRFTISRDNAKNTVYLQMNSLKPEDTAVYYCAAERAYYQTGHYYWGQGTQVTVSS", "polyreactivity (PSR sort gate)": "high polyreactivity"}, {"sequence": "QVQLVESGGGLVQAGGILRLSCAASGRIFYINAMGWYRQAPGKERELVATISWSGGSTNYADSVKGRFTISRDNAKNTVYLQMKSLIPEDTAVYYCAADSRIYIAYAVRSYERDYWGQGTQVSVSS", "polyreactivity (PSR sort gate)": "low polyreactivity"}, {"sequence": "QVQLVESGGGLVQAGGSLRLSCAASGGIFSPNAMGWYRQAPGKERELVAAISSNGGSTNYADSVKGRFTISRDNAKNTVYLQMNSLKPEDTAVFYCAGLQLRRSYRRPFYWGQGTQVTVSS", "polyreactivity (PSR sort gate)": "low polyreactivity"}, {"sequence": "QVQLVESGGGLVQAGGSLRLSCAASGSTFSIYAMGWYRPAPGKERELVAAITGTVGSTYYADSVKGRFTISRDNAKNTVYLQMNSLKPEDTAVYYCAARQVNYDYDYWGQGTQVTVSS", "polyreactivity (PSR sort gate)": "low polyreactivity"}, {"sequence": "QVQLVESGGGLVQAGGSLRLSCAASGRIFTRYAMGWYRQAPGKERELVATISGSGSTNYADSVKGRFTISRDNAKNTVYLQMNSLKPEDTAVYYCNRRSRREYDYWGQGTQVTVSS", "polyreactivity (PSR sort gate)": "low polyreactivity"}, {"sequence": "QVQLVESGGGLVQAGGSLRLSSAASGSTFDSNAMGWYRQAPGKERELVAAIDYSSDSTYYADSVKGRFTISRDNAKNTVYLQMNSLKPEDTAVYYCAAVAYIFCARYGYNYWGQGTQVTVSS", "polyreactivity (PSR sort gate)": "low polyreactivity"}, {"sequence": "QVQLVESGGRLVQAGGSLRLSCAASGSIFGFNAMGWYRQAPGKERELVAAIIYGGSTNYADSVKGRFTISRDNEKNTVYLQMNSQKPEDTAVYYCAARLNYIRRGYWGQGTQVTVSS", "polyreactivity (PSR sort gate)": "high polyreactivity"}, {"sequence": "QVQLVESGGGLVQAGGSLRLSCAASGSIFYHYAMGWYRQAPGKEWELVAAITITGGSTYYADSVKGRFTISRDNAKNTVYLQMNSLKPEDTAVYYCAAEGWYGYQWFDYWGQGTQVTVSS", "polyreactivity (PSR sort gate)": "high polyreactivity"}, {"sequence": "QVQLVESGGGLVQAGGSLRLSCAASGRTFGGYAMGWYRQAPGKERELVAAITWRGGRTFYADSVKGRFTISRDNAKNTVYLQMNSLKPEDTAVYYCNVVKYGPRYDYWGQGTQVTVSS", "polyreactivity (PSR sort gate)": "high polyreactivity"}, {"sequence": "QVQLVESGGGLVQAGGSLRLSCAASGSTFDSYAMGWYRQDPGKERELFAAITYSGGRTYYADSVKGRFTISRDNAKNTVYLQMNSLKPEDTAVYYCAATGVFRDEYWGQGTQVTVSS", "polyreactivity (PSR sort gate)": "low polyreactivity"}]}]}
